Laboratory results: PMC7846560, “A promiscuous ancestral enzyme´s structure unveils protein variable regions of the highly diverse metallo-β-lactamase family” (Communications Biology, 2021)

Substrate: O=[N+]([O-])c1ccc(OP(=O)(O)Oc2ccc([N+](=O)[O-])cc2)cc1
Assay: purified protein
Type: biochemical, Ignicoccus hospitalis
Settings: pH 8, 90 °C, Ni2+ is the required metal (optimal metal conditions)

B1: Igni18 (Ignicoccus hospitalis KIN4/I) (protein)
chain: MTTVKLTYFGHSAFHVEVDGVGIAIDPWITNPLSKTTLEDYLKNFKTDLVVITHAHEDHIGDALEIMRRTGAKFFSIHEIYVDLTQKGFQGIGANIGGPAKLDDVAPGLGIALTPATHSSYDKGVPTGAIIFKDGKALVYHAGDTGLFAEMQFIGELYAPKVALLPIGGHYTMDIEQALLATKLLRPEVVVPMHYNTFPPIRADPNEFKQKVESAGLAKVRVMEPGETVTFEF
notes: homotrimer; 233 protein residues in the structure
Km: 2.5 µM | kcat: 6.72e-05 s⁻¹
